Data published in the supplement of paper PMC9732359.
± gives the uncertainty stated by the source.

Test: protein stability index of a GFP-peptide fusion (yeast GPS) (PSI 1-4); higher = more stable; sorted into four equal gates, so the index is relative within each strain
Method in brief: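 Each library plasmid carries Cherry plus GFP with a tiled 17-residue yeast protein peptide fused downstream, and the pooled library was carried in yeast. Mid-log cultures in leucine-free medium were sorted into four equal gates by GFP/Cherry ratio. Reads from Illumina sequencing of PCR-amplified plasmids from each gate were assigned to strains by barcodes. Per peptide, the protein stability index was computed as the summed products of gate read frequency and gate number.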

| Sequence | protein stability index (doa10∆) | protein stability index (pdr5∆) | protein stability index (san1∆) | protein stability index (ubr1∆) |
| --- | --- | --- | --- | --- |
| NPYSSYVSQIRKHKRVS [YAR002W/NUP60] | 2.23 ± 0.081 | 1.88 ± 0.05 | 2.85 ± 0.049 | 2.38 ± 0.067 |
| KDPDVPLVLLQQIPLLC [POP3] | 2.33 ± 0.055 | 2.57 ± 0.064 | 2.4 ± 0.06 | 2.47 ± 0.052 |
| KDDMKVDDAIELALKTL [PRE9] | 2.76 ± 0.25 | 3.52 ± 0.1 | 3.18 ± 0.077 | 3.65 ± 0.09 |
| VSETPKRIKGLEFSALS [RPO31] | 3.01 ± 0.12 | 2.94 ± 0.12 | 3.01 ± 0.086 | 2.97 ± 0.1 |
| LPVKEFQIIDTLLPGLQ [RPS2] | 2.35 ± 0.15 | 1.83 ± 0.059 | 1.95 ± 0.089 | 1.5 ± 0.063 |
| FSHSLTTILSFSSPAAL [NUT1] | 1.46 ± 0.031 | 1.38 ± 0.029 | 1.35 ± 0.063 | 1.32 ± 0.026 |
| RGVDAGKGNTFEKVGSH [RPN14] | 2.71 ± 0.24 | 2.98 ± 0.17 | 3.67 ± 0.11 | 3.33 ± 0.12 |
| MVEWLESRSFSPIPFPP [PRP8] | 2.52 ± 0.13 | 2.83 ± 0.17 | 3.17 ± 0.13 | 2.9 ± 0.11 |
| DYCRILSDIETAVNGID [YGL172W/NUP49] | 3.28 ± 0.16 | 3.15 ± 0.13 | 2.75 ± 0.17 | 2.71 ± 0.1 |
| IPATIFDKVIYHLHPTF [TAF14] | 2.61 ± 0.066 | 2.8 ± 0.068 | 2.55 ± 0.062 | 2.78 ± 0.057 |
| GLRAVRKNRYVILQSDL [RPT3] | 3.05 ± 0.081 | 3.06 ± 0.1 | 3.05 ± 0.08 | 3.31 ± 0.14 |
| RVADEDANLNDLPETGF [IRR1] | 3 ± 0.095 | 3.22 ± 0.11 | 3.44 ± 0.078 | 3.13 ± 0.089 |
| LHPYVPSSKPQEQVYPD [SRB8] | 2.81 ± 0.24 | 2.92 ± 0.12 | 3.08 ± 0.093 | 3.25 ± 0.15 |
| NHTAHNQTRKAHRNGIK [RPL29] | 1.88 ± 0.047 | 2.56 ± 0.059 | 2.32 ± 0.06 | 2.57 ± 0.052 |
| FNYVQECPAIPIFNYIF [YJL039C/NUP192] | 1.9 ± 0.072 | 1.75 ± 0.056 | 1.88 ± 0.082 | 1.85 ± 0.042 |
| IKLVKQNDELKFQGVLE [RPC34] | 3.25 ± 0.13 | 3.53 ± 0.12 | 3.37 ± 0.051 | 2.58 ± 0.095 |
| HLERNRKDKDAKFRLIL [RPS13] | 3.22 ± 0.12 | 3.06 ± 0.13 | 3.38 ± 0.24 | 3.52 ± 0.2 |
| KAKTTKKVVLRLECVKC [RPL42A] | 1.64 ± 0.22 | 1.52 ± 0.17 | – | 1.81 ± 0.065 |
| DIGSDPTLPRSDRECPK [RPB9] | 2.7 ± 0.069 | 2.94 ± 0.078 | 2.85 ± 0.076 | 3.14 ± 0.082 |
| PSYTHVLISKLSCEKIT [RRI1] | 2.18 ± 0.04 | 1.99 ± 0.043 | 2.12 ± 0.047 | 1.98 ± 0.035 |
| IDQVNELVTISWVQPRI [RPN9] | 3.33 ± 0.069 | 3.28 ± 0.069 | 3.22 ± 0.045 | 3.15 ± 0.067 |
| PEKEASSATIVLCLTRS [YCG1] | 2.03 ± 0.06 | 2.5 ± 0.061 | 2.1 ± 0.056 | 2.24 ± 0.046 |
| RCGRRSFHVQKKTCSSC [RPL37A] | 2.3 ± 0.04 | 2.56 ± 0.061 | 2.47 ± 0.048 | 2.39 ± 0.038 |
| DLPETGFFENIETEFLL [IRR1] | 3.13 ± 0.075 | 3.18 ± 0.1 | 3.22 ± 0.047 | 3.13 ± 0.066 |
| VILRKISMLVTQLQRGG [CSI1] | 1.31 ± 0.059 | 1.57 ± 0.056 | 1.55 ± 0.098 | 1.3 ± 0.045 |
| NHNKTKLLKSLKNTKYF [PRP8] | 1.8 ± 0.078 | 1.83 ± 0.052 | 1.54 ± 0.095 | 2.15 ± 0.073 |

| Sequence | protein stability index (doa10∆) | protein stability index (pdr5∆) | protein stability index (san1∆) | protein stability index (ubr1∆) |
| --- | --- | --- | --- | --- |
| IKNVQDLLILTRSIKEK [SRB6] | 1.34 ± 0.11 | 1.31 ± 0.13 | – | 1.76 ± 0.2 |
| KMATDNKINSRNSWNFA [BRN1] | – | 2.94 ± 0.12 | – | 1.92 ± 0.12 |
| RSTDVWYEASTWIQQFK [ARP7] | – | 3.64 ± 0.13 | 2.45 ± 0.28 | 2.97 ± 0.13 |
| KAMDIPIGRHEELLAQY [SWP82] | 2.07 ± 0.044 | 2.25 ± 0.043 | 2.13 ± 0.068 | 2 ± 0.029 |
| DSENNEENSSSNGNNLP [RGR1] | 2.96 ± 0.061 | 2.96 ± 0.056 | 2.96 ± 0.055 | 3.06 ± 0.039 |
| RGRGRGRGRGRGRPPKA [SNF2] | 3.22 ± 0.075 | 3.2 ± 0.066 | 3.37 ± 0.041 | 3.27 ± 0.06 |
| KDNAIYNGFIDIFSNLS [YCS4] | 2.85 ± 0.076 | 2.72 ± 0.081 | 2.87 ± 0.07 | 2.77 ± 0.047 |
| QPQQQLGDMENNLEKYP [RTT102] | 3.54 ± 0.092 | 3.15 ± 0.12 | 3.62 ± 0.077 | 3.33 ± 0.1 |
| SNKILVYESEMEQCKQR [YIL149C/MLP2] | 2.72 ± 0.17 | 2.95 ± 0.17 | 2.18 ± 0.28 | 3.16 ± 0.26 |
| KKVASANATAAESDVAK [RPL16A] | 3.08 ± 0.054 | 3.04 ± 0.065 | 3.1 ± 0.036 | 3.02 ± 0.038 |
| LYNKIWTEASSSGAGTV [ECM29] | 2.12 ± 0.065 | 1.76 ± 0.058 | 2.12 ± 0.081 | 2.93 ± 0.08 |
| VENLTVAQECIAFLKKQ [SMC1] | 2.12 ± 0.065 | 2.47 ± 0.07 | 2.42 ± 0.086 | 1.98 ± 0.051 |
| SRPATTTRNGFMEAQGA [FAS2] | 2.28 ± 0.049 | 2.18 ± 0.046 | 2.48 ± 0.065 | 2.21 ± 0.039 |
| REQHIDTICQSIQEQIQ [SNF5] | 3.12 ± 0.068 | 3.25 ± 0.11 | 3.25 ± 0.053 | 3.3 ± 0.068 |
| EDQKVVDKALIAEIKKT [RPL6A] | 3.37 ± 0.13 | 3.48 ± 0.084 | 3.19 ± 0.11 | 3.61 ± 0.072 |
| LLNKNTGNNLYDRNSNN [SWI1] | 2.79 ± 0.065 | 2.85 ± 0.06 | 2.7 ± 0.064 | 2.9 ± 0.038 |
| AACEKLLPPIKIELIKN [RPN12] | 1.98 ± 0.19 | 2.25 ± 0.094 | 2.44 ± 0.098 | 1.99 ± 0.072 |
| VNLEDNTQDLLLLLSLF [YML103C/NUP188] | 1.68 ± 0.13 | 2.7 ± 0.12 | 2.41 ± 0.14 | 2.47 ± 0.091 |
| HILAVKKMMNTLVHTRV [SSN2] | 2.25 ± 0.056 | 2.03 ± 0.062 | 2.06 ± 0.086 | 1.34 ± 0.059 |
| QVEYALEAIKQGSVTVG [PRE5] | 2.92 ± 0.12 | 3.33 ± 0.21 | 3.14 ± 0.17 | 3.09 ± 0.18 |
| LFNESFIMASVGKYDKA [SRP72] | 3 ± 0.29 | 2.85 ± 0.27 | – | – |
| ALLIAGHDADDGYQLFH [PUP2] | 2.29 ± 0.16 | 2.86 ± 0.17 | 3.22 ± 0.12 | 2.66 ± 0.13 |
| GSIRVHKSGKLSVKIGN [RPC53] | 1.27 ± 0.052 | 1.44 ± 0.047 | 1.75 ± 0.068 | 1.69 ± 0.04 |
| LDDTTIPVGLMAQENSM [MCD1] | 1.5 ± 0.071 | 1.84 ± 0.093 | 1.56 ± 0.17 | 1.87 ± 0.078 |
| TATGIKVFSLDPQYLVD [ASC1] | 2.52 ± 0.049 | 2.67 ± 0.044 | 2.89 ± 0.039 | 2.58 ± 0.032 |
